We go through one substance from US20180009892A1.

This assay has as its target human ROR1 extracellular domain (ECD) protein (human) (UniProt Q01973). Description: ForteBio Octet, blocking of Wnt5a binding to ROR1. Background: In BLI a coated tip is dipped into the sample, and binding shifts an interference pattern.

Sequence of human ROR1 extracellular domain (ECD) protein (human) (Q01973 30-406 limits assumed): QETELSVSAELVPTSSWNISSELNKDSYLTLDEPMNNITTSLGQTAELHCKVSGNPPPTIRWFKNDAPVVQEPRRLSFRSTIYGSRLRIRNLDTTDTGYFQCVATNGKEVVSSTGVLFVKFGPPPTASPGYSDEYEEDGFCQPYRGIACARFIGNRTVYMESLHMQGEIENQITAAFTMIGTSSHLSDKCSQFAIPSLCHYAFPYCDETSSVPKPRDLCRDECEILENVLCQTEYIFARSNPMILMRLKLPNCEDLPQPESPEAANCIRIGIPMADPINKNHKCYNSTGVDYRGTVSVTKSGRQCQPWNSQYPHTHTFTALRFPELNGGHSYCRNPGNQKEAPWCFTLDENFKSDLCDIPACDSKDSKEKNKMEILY

The substance mAb Control (antibody) gave a Percentage Blocking of 0%.
